According to PMC6445466, “Structural determination of the complement inhibitory domain of Borrelia burgdorferi BBK32 provides insight into classical pathway complement evasion by Lyme disease spirochetes” (PLoS Pathogens, 2019):
Changes are numbered by the printed parent chain. Names may count otherwise.

What was measured:
[1] = target: T1, C1r_(CCP1-CCP2-SP-auto) (autolytic fragment of human C1r, Leu-300 to Asp-705) (human, UniProt P00736 300-705); test: SPR; Biacore T200, 25 °C, BBK32(206-348) immobilised; C1r fragments as analytes, single-cycle as for C1r, 0.8 to 500 nM; 1:1 Langmuir fit; settings: both partners purified
T1 construct: complement C1r, human, residues Leu-300 to Asp-705 by mass spectrometry: last six residues of CUB2 and all of CCP1-CCP2-SP; Runs as one 55 kDa band on non-reducing SDS-PAGE; also called 55 kDa band; autolytic C1r fragment; source: autolytic digestion of bought purified C1r (Complement Tech) overnight at 37 °C; used in the digestion mix (SEC) and purified (SPR)
T1 sequence: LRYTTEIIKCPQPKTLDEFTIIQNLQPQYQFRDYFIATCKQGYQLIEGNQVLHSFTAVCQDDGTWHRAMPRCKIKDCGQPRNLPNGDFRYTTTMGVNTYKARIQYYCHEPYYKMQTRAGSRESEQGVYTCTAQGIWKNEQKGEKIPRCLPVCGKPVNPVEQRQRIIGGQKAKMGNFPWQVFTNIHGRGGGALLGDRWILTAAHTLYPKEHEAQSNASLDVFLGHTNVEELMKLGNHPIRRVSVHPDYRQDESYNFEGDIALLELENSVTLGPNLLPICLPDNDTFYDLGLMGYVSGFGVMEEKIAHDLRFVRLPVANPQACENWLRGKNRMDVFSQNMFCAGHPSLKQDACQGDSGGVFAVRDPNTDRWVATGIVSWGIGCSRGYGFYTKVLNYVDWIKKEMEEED

[2] = target: T2, His-C1r-CCP2-SP (residues 376-705) (human, UniProt P00736 376-705); test: as above; settings: both partners purified
T2 construct: complement C1r, human, CCP2-SP domains, residues 376-705 as defined by UniProt P00736
T2 sequence: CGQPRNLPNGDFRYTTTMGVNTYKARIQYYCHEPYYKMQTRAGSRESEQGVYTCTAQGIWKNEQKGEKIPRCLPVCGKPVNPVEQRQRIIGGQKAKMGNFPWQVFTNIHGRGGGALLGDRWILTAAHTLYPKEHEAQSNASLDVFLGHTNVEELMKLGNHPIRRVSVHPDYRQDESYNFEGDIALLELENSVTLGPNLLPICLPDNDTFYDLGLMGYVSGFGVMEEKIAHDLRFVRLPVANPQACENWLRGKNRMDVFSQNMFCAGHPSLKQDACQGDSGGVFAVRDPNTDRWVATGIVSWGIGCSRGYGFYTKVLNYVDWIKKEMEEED

[3] = target: T3, recombinant His-C1r-CCP2-SP (residues 376-705) (human, UniProt P00736 376-705); test: SPR; Biacore T200, 25°C; BBK32(206-348) immobilised by amine coupling; C1r fragments as analytes, single-cycle kinetics as for C1r, 0.8 to 500 nM; 1:1 kinetic fit; triplicate; settings: both partners purified
T3 construct: complement C1r, human, CCP2-SP domains, residues 376-705 (domains as defined by UniProt P00736); also called rHIS-C1r-CCP2-SP
T3 sequence: T2 sequence

[4] = target: T4, C1r CCP1-CCP2-SP-auto, autolytic fragment of human C1r (Leu-300 to Asp-705) (human, UniProt P00736 300-705); test: as above; settings: both partners purified
T4 construct: complement C1r, human, residues Leu-300 to Asp-705 by mass spectrometry: last six residues of CUB2 and the whole of CCP1-CCP2-SP; Migrates as one 55 kDa band on non-reducing SDS-PAGE; also called 55 kDa fragment; source: autolytic digestion of bought C1r (Complement Tech) overnight at 37°C, purified
T4 sequence: T1 sequence

[5] = target: T5, human C1r, full-length enzyme (human, UniProt P00736 18-705); test: SPR; Biacore T200, 25°C; borrelial protein immobilised by amine coupling; C1r as analyte, single-cycle kinetics, five-fold dilution series 1.6 to 1000 nM; HBS-T with 5 mM CaCl2; 1:1 kinetic fit; triplicate; settings: both partners purified
T5 construct: complement C1r, human, 92 kDa, CUB1-EGF-CUB2-CCP1-CCP2-SP; bought as purified full-length enzyme; source: bought: Complement Technology (Tyler, TX), purified
T5 sequence: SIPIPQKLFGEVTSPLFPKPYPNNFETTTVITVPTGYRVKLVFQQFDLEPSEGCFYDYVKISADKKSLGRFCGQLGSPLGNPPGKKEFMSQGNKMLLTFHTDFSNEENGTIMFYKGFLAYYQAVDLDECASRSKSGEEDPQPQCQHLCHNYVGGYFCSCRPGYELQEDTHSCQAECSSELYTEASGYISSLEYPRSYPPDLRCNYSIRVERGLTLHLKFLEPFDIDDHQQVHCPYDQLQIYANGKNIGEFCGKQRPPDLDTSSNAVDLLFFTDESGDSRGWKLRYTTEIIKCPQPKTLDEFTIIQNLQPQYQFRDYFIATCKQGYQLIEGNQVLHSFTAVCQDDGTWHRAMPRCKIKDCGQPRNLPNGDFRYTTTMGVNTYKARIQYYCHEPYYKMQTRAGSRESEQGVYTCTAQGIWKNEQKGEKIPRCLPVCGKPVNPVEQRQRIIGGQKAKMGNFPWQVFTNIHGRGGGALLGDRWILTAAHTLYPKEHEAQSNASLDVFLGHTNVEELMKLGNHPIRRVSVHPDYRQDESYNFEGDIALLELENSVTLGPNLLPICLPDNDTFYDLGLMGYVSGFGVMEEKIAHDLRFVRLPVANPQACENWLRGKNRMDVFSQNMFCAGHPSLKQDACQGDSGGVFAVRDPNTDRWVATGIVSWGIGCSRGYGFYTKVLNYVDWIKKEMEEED

[6] = target: T6, human C1r, full-length enzyme (human, UniProt P00736 18-705); test: cell-based or functional assay
T6 sequence: T5 sequence

human C1 complex = target: T7, human C1 complex (human, UniProt P02745 23-245; P02746 28-253; P02747 29-245); test: SPR; Biacore T200, 25°C; borrelial protein immobilised by amine coupling (CMD200M chip); C1 as analyte, two-fold dilution series 0 to 150 nM, 2 min association, 3 min dissociation; HBS-T (20 mM HEPES pH 7.3, 140 mM NaCl, 0.005% Tween-20) with 5 mM CaCl2; 1:1 kinetic fit; triplicate; settings: both partners purified
T7 construct: C1q subunit A, human; C1q subunit B, human; C1q subunit C, human; complement C1r, human, within the C1r2C1s2 heterotetramer; complement C1s, human, within the C1r2C1s2 heterotetramer; also called first component of complement; source: bought: Complement Technology (Tyler, TX), purified; copies: + + + 2 + 2

B1: BBK32_((206-348)) (residues 206-348, B. burgdorferi strain B31) (domain or fragment)
chain: SNRYQSYLEGVKYNVDSAIQTITKIYNTYTLFSTKLTQMYSTRLDNFAKAKAKEEAAKFTKEDLEKNFKTLLNYIQVSVKTAANFVYINDTHAKRKLENIEAEIKTLIAKIKEQSNLYEAYKAIVTSILLMRDSLKEVQGIID
notes: BBK32 of Borrelia burgdorferi strain B31, residues 206-348 (lacks six C-terminal residues relative to BBK32-C); The deposited model holds residues 209-348; also called BBK32-C_((206-348)); crystallization construct
[1]
  Kd: 1.5 nM
[2]
  Kd: 3.9 nM

B2: BBK32(206-348) (residues 206-348, B. burgdorferi strain B31) (domain or fragment)
chain: B1 chain
notes: BBK32, Borrelia burgdorferi strain B31, residues 206-348 (lacks six C-terminal residues relative to BBK32-C); also called BBK32-C(206-348); source: recombinant, sub-cloned into pT7HMT, purified to homogeneity
[3]
  koff: 3.7e-05 s⁻¹
  kon: 9400 M⁻¹ s⁻¹
[4]
  koff: 2.6e-05 s⁻¹
  kon: 17000 M⁻¹ s⁻¹
[5]
  Kd: 0.75 nM
  koff: 9.7e-06 s⁻¹
  kon: 13000 M⁻¹ s⁻¹

B3: BGD19-C (residues 206-354, B. garinii strain IP90) (domain or fragment)
chain: SNRYQSYLEGVKYNVDSAIKTITKIYDTYTLFLTKLTQMYSTRLDNLAKAKAKEEAAKFTKEDLEKNFKTLLNYIQVSVKTATNFVYINDTHAKRKLENIETKIKTLIAKIKEKSNLYQAYKAIVRPILLMRDSLKEVQGAIDKNGIWY
[6]
  IC50 of C3b deposition, classical pathway-specific ELISA with normal human serum: 32 nM
  IC50 of MAC deposition, classical pathway-specific ELISA with normal human serum: 35 nM
  IC50 of classical pathway hemolysis of sensitized sheep red blood cells by human serum; no saturable inhibition up to 1 uM: ~7600 nM

B4: BGD19-C (residues 206-354, B. garinii strain IP90) (domain or fragment)
chain: B3 chain
Human C1 complex
  Kd: 3 nM
  koff: 0.00035 s⁻¹
  kon: 120000 M⁻¹ s⁻¹
[5]
  Kd: 5.3 nM
  koff: 8.1e-05 s⁻¹
  kon: 15000 M⁻¹ s⁻¹

B5: BBK32-C (residues 206-354, B. burgdorferi strain B31) (domain or fragment)
chain: SNRYQSYLEGVKYNVDSAIQTITKIYNTYTLFSTKLTQMYSTRLDNFAKAKAKEEAAKFTKEDLEKNFKTLLNYIQVSVKTAANFVYINDTHAKRKLENIEAEIKTLIAKIKEQSNLYEAYKAIVTSILLMRDSLKEVQGIIDKNGVWY
[6]
  IC50 of C3b deposition, classical pathway-specific ELISA with normal human serum: 14 nM
  IC50 of MAC deposition, classical pathway-specific ELISA with normal human serum: 13 nM
  IC50 of classical pathway hemolysis of sensitized sheep red blood cells by human serum: 170 nM

B6: BBK32-C (residues 206-354, B. burgdorferi strain B31) (domain or fragment)
chain: B5 chain
notes: BBK32, Borrelia burgdorferi sensu stricto strain B31, residues 206-354; also called BBK32(206-354); source: recombinant, sub-cloned into pT7HMT, purified to homogeneity
[5]
  Kd: 5.1 nM
  koff: 8.6e-05 s⁻¹
  kon: 17000 M⁻¹ s⁻¹

B7: BXK32-C (BBK32-C E308K-Q319K-E324Q) (domain or fragment, Borrelia burgdorferi strain B31, UniProt O50835 206-354, looked up)
chain: B5 chain with E103K, Q114K, E119Q
notes: BBK32, Borrelia burgdorferi strain B31, residues 206-354 (the limits of BBK32-C) with three residues changed to those of B. garinii BGD19; also called BBK32-E308K-Q319K-E324Q; chimeric BBK32-C; source: recombinant, E. coli codon-optimized synthetic DNA in pT7HMT, purified to homogeneity
[5]
  Kd: 7.1 nM
  koff: 0.00016 s⁻¹
  kon: 22000 M⁻¹ s⁻¹
